Reference: patent US20050191621A1

What was measured:
[1] = molecular target: 8x-V3BaL Env (8x Env with the V3 loop of HIV-1/BaL; on cells or on luciferase reporter virions) (HIV-1 (IIIBx 8x/BaL chimera)); test: cell-based or functional assay
[2] = molecular target: IIIB-V3BaL Env (HXB Env with the V3 loop of HIV-1/BaL; on luciferase reporter virions) (HIV-1 (IIIB/BaL chimera)); test: cell-based or functional assay

Row | Substance | concentration of antibody required to neutralize 50% of input virus (luciferase reporter virus, GHOST-CCR5 cells) [1] | concentration of antibody required to neutralize 90% of input virus (luciferase reporter virus, GHOST-CCR5 cells) [1] | percent neutralization at 200 ng/ml (luciferase reporter virus, GHOST-CCR5 cells) [1] | concentration of antibody required to neutralize 50% of input virus (luciferase reporter virus, GHOST-CCR5 cells) [2] | concentration of antibody required to neutralize 90% of input virus (luciferase reporter virus, GHOST-CCR5 cells) [2]
1 | CD4-induced (CD4i) monoclonal antibody 48d | 3 ng/mL | > 200 ng/mL | 88% | > 5000 ng/mL | > 5000 ng/mL
2 | CD4-induced (CD4i) monoclonal antibody 17b | 2 ng/mL | 15 ng/mL |  | 14 ng/mL | 90 ng/mL
